# Measured values published in patent US20250262210A1 (TRUSTEES OF COLUMBIA UNIVERSITY IN THE CITY OF NEW YORK, published 2025).
# B1: LZTR1 R810W-FLAG (other, human, UniProt Q8N653 1-840, looked up)
# chain: MAGPGSTGGQIGAAALAGGARSKVAPSVDFDHSCSDSVEYLTLNFGPFETVHRWRRLPPCDEFVGARRSKHTVVAYKDAIYVFGGDNGKTMLNDLLRFDVKDCSWCRAFTTGTPPAPRYHHSAVVYGSSMFVFGGYTGDIYSNSNLKNKNDLFEYKFATGQWTEWKIEGRLPVARSAHGATVYSDKLWIFAGYDGNARLNDMWTIGLQDRELTCWEEVAQSGEIPPSCCNFPVAVCRDKMFVFSGQSGAKITNNLFQFEFKDKTWTRIPTEHLLRGSPPPPQRRYGHTMVAFDRHLYVFGGAADNTLPNELHCYDVDFQTWEVVQPSSDSEVGGAEVPERACASEEVPTLTYEERVGFKKSRDVFGLDFGTTSAKQPTQPASELPSGRLFHAAAVISDAMYIFGGTVDNNIRSGEMYRFQFSCYPKCTLHEDYGRLWESRQFCDVEFVLGEKEECVQGHVAIVTARSRWLRRKITQARERLAQKLEQEAAPVPREAPGVAAGGARPPLLHVAIREAEARPFEVLMQFLYTDKIKYPRKGHVEDVLLIMDVYKLALSFQLCRLEQLCRQYIEASVDLQNVLVVCESAARLQLSQLKEHCLNFVVKESHFNQVIMMKEFERLSSPLIVEIVRRKQQPPPRTPLDQPVDIGTSLIQDMKAYLEGAGAEFCDITLLLDGHPRPAHKAILAARSSYFEAMFRSFMPEDGQVNISIGEMVPSRQAFESMLRYIYYGEVNMPPEDSLYLFAAPYYYGFYNNRLQAYCKQNLEMNVTVQNVLQILEAADKTQALDMKRHCLHIIVHQFTKVSKLPTLWSLSQQLLLDIIDSLASHISDKQCAELGADI
# notes: Stably expressed in U87 cells by lentivirus; also called LZTR1-FLAG-R810W; LZTR1 RW; not shown: FLAG tag
# Target: T1, LAMB3 (human, UniProt Q13751 18-1172)
# T1 sequence (looked up): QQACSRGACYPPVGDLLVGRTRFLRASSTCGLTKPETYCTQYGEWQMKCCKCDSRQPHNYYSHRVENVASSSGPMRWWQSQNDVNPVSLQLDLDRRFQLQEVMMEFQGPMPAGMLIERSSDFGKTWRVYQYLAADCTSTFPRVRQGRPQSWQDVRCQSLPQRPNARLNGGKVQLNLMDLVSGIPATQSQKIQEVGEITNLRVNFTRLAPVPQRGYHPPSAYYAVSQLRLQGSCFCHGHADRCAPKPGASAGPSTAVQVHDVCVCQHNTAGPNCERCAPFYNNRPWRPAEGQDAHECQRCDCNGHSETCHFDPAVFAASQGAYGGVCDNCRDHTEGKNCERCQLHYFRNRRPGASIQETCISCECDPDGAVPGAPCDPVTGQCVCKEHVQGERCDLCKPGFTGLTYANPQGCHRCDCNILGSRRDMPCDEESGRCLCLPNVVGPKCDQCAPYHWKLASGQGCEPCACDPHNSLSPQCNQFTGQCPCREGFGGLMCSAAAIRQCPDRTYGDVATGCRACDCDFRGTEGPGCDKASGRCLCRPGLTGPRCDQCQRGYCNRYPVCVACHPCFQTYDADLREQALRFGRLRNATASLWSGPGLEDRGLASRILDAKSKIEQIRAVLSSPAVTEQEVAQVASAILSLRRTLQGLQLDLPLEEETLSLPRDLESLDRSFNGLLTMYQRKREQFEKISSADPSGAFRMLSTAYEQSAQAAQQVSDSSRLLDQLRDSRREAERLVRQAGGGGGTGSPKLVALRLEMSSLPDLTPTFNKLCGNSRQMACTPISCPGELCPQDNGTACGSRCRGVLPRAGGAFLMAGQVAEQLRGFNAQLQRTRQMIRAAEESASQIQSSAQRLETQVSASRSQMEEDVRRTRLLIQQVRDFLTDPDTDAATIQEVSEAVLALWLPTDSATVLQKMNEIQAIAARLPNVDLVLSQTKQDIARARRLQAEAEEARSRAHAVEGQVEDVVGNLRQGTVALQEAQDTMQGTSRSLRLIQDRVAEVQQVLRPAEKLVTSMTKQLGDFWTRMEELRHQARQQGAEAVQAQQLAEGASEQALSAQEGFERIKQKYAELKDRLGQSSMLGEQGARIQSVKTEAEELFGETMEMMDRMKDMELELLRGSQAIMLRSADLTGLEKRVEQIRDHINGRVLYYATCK
# Test: IP/MS, LZTR1 R810W-FLAG, U87
# Outline: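 Gel slices were reduced with 5 mM DTT, alkylated with 11 mM IAA and digested overnight at 37° C. with trypsin. Peptides were analysed on an Orbitrap Fusion Tribrid by LC-MS/MS.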
binder,measurement,value
B1,binding result,binds
